Test results published in article PMC5410128, “Can Aptameric Ligands Specific to Plasma Coagulation Factor VII Bind the Recombinant Form with High Affinity: Affinity Measurement by Fluorescence Method”.

Biological target: recombinant activated coagulation factor VII (FVIIa, AryoSeven) (UniProt P08709;P08709 61-212;213-466)
Assay: fluorescence intensity change (FAM), plate reader; 5 mM Ca2+, 5 mM Mg2+; 40 mM Tris, 117 mM NaCl, 5 mM CaCl2, 5 mM MgCl2, pH 7.4; 1 nM protein, aptamer 100 pM-10 uM; 4 C, 1 h; errors are SE
Details: copies: 1;1, single strand, predicted partly folded

recombinant activated coagulation factor VII (FVIIa, AryoSeven), sequence (P08709 61-212, chain 1 of 2): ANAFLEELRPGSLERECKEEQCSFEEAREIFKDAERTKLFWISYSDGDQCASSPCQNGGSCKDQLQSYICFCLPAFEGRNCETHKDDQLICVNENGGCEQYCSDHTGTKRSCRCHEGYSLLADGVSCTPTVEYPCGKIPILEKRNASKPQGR
recombinant activated coagulation factor VII (FVIIa, AryoSeven), sequence (P08709 213-466, chain 2 of 2): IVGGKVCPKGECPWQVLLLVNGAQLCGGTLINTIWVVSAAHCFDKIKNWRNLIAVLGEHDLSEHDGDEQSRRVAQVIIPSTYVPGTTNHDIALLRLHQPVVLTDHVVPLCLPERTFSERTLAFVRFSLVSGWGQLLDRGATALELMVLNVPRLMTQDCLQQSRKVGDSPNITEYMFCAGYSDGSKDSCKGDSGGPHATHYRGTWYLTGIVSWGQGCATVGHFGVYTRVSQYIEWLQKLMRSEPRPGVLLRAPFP

B1: Apt81 (ssDNA)
DNA: GGGAGATAGCCACGACCTATGCAGCCAGCCGCAGTGTAAGTGAATGCAGACATGGTCTAAGTGTCCAGGCTGTGCGAAAGC
B1 gave a Kd of 938 ± 149 nM.

B2: Apt44 (ssDNA)
DNA: CCGCACACCACGCGCATAATCCCGCGCACACGACTTGAAGTAGC
In the case of B2, the Kd is reported as 167 ± 18 nM.
